Data from patent US20090280128A1.

Legend:
[1] = biological target: C-FLAG ILT7 (human ILT7 with FLAG tag at the C terminus, co-expressed with Myc-FcRγ) (human) (UniProt P59901); test: flow cytometry on ILT7-CHO cells, control antibody, APC-labeled goat anti-mouse IgG
[2] = biological target: C-FLAG ILT7 (human ILT7 with FLAG tag at the C terminus, co-expressed with Myc-FcRγ) (human) (UniProt P59901); test: flow cytometry on ILT7-CHO cells, control antibody, APC goat anti-mouse IgG then FITC donkey anti-goat IgG

C-FLAG ILT7 (human ILT7 with FLAG tag at the C terminus, co-expressed with Myc-FcRγ) (human), sequence (P59901 other isoform, or with tags, fused parts or gaps): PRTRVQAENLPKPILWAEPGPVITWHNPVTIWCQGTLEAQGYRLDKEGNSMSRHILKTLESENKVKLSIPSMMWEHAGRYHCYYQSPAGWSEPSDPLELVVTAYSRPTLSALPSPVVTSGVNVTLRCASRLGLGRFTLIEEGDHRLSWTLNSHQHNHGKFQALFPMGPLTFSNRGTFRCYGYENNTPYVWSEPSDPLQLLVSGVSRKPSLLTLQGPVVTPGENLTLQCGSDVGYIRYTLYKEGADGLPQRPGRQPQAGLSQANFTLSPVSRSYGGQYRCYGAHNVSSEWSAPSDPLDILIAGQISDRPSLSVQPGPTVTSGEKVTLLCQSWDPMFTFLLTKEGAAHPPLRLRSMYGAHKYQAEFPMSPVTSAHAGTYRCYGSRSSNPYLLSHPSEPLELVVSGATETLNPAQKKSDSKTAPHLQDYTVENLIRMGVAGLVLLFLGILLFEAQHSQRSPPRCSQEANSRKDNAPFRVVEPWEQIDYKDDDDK

Question: With Mouse IgG2a (antibody) as the substance, how does the APC mean fluorescence intensity, incubation at 4 °C [1] read?
Answer: 3

Question: What about the APC mean fluorescence intensity, incubation at 37 °C [1] of the same substance?
Answer: 3.64

Question: What about the FITC mean fluorescence intensity, incubation at 4 °C [2] of the same substance?
Answer: 3.7

Question: And the FITC mean fluorescence intensity, incubation at 37 °C [2]?
Answer: 4.2
